The values below come from US20050277588A1 (AFFYMAX, published 2005).

Experiment [1] addresses T1, granulocyte-colony stimulating factor receptor (G-CSFR), purified / soluble receptor used in the binding … (UniProt Q99062 25-627, limits assumed).
T1 construct: also called G-CSF receptor; soluble G-CSFR harvest
T1 sequence (looked up): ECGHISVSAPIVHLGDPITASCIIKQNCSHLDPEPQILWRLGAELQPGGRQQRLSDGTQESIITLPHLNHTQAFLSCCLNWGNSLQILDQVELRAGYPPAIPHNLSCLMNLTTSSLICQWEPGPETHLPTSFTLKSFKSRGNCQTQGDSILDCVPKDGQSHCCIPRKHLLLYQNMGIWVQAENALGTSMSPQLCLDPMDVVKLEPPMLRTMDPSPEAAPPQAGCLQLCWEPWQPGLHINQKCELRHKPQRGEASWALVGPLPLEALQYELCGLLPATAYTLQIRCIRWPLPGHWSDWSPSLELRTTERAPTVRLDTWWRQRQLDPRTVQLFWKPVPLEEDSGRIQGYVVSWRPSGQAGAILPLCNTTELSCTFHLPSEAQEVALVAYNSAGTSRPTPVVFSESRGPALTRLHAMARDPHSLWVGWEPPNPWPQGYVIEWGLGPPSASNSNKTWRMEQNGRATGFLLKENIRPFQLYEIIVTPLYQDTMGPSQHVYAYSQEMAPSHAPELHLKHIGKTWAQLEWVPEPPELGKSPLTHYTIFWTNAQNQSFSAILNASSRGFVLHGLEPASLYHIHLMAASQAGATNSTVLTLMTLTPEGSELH
The experiment is described as follows: SPA competition with 125I-G-CSF on G-CSFR-coated beads; grade defined in paragraph 137. The protocol: (§1) Streptavidin-coated scintillation proximity assay (SPA) beads (Amersham) were mixed with biotinylated anti-receptor immobilizing antibody (Ab179) followed by incubation with soluble G-CSFR harvest. Receptor-coated SPA beads were washed twice in PBS/0.1% BSA and distributed to wells of a white polystyrene 96-well microtiter plate (Packard). Serial dilutions of peptide or peptide mimetic were mixed with a constant amount of ¹²⁵I labeled G-CSF (10⁵ cpm; 1290 Ci/mmol) in PBS/0.1% BSA, added to wells containing receptor-coated SPA beads, and incubated overnight at 4° C. The binding of radiolabeled G-CSF to the receptor-coated SPA bead brings the isotope in close proximity to the scintillant, which allows the emitted radiation to stimulate the scintillant to emit light. […] The amount of ¹²⁵I labeled G-CSF that was bound at equilibrium was measured by counting the plate in a TopCount (Wallac) microtiter plate luminometer. The assay is conducted over a range of peptide concentrations and the results are graphed such that the y-axis represents the amount of bound ¹²⁵I labeled G-CSF and the x-axis represents the concentration of peptide or peptide mimetic. One can determine the concentration at which the peptide or peptide mimetic will reduce by 50% (IC₅₀) the amount of ¹²⁵I labeled G-CSF bound to immobilized G-CSFR. The dissociation constant (Kd) for the peptide should be similar to the measured IC₅₀ using the assay conditions described above.

Experiment [2] deals with T1, granulocyte-colony stimulating factor …. The experiment is described as follows: SPA competition with 125I-G-CSF on G-CSFR-coated beads; hybrid grade, at or near the cutoff. As for the experimental part:
as §1

Experiment [3] shares this target. The experiment is described as follows: specific binding to G-CSFR (total minus non-specific binding with excess unlabeled ligand).

Where no end group is shown, it is not given here. The star is where a group is joined. Biotin = O=C1N[C@H]2[C@H](CS[C@H]2CCCCC(=O)*)N1 Where only a bound is given, the exact number is not on record here.

B1: Example 56 peptide LGIEGRTGGGLLDICELKLQECARRCN (peptide)
peptide: LGIEGRTGGGLLDICELKLQECARRCN
notes: also called Ex. No. 56
Molecule B1 came in with a 50% inhibitory concentration (IC50) in experiment [1] of at most 0.5 µM.

B2: Example 67 dimer of CSTGGGLTAERDAEKRRWLLTHGGE (peptide)
peptide: CSTGGGLTAERDAEKRRWLLTHGGE
modifications: also: homodimer linked through the N-terminal Cys residues
notes: also called Ex. No. 67
In turn, B2 gave an IC50 in experiment [1] of at most 200 µM.

B3: Example 49 peptide ALLMCESKLAECARAR (peptide)
peptide: ALLMCESKLAECARAR
notes: also called Ex. No. 49
In experiment [2], B3 returned an IC50 of about 200 µM.

B4: Example 15 peptide CETLCGACFC (peptide)
peptide: CETLCGACFC
notes: also called Ex. No. 15
On to B4, for which, in experiment [3], the binding result is recorded as “no binding”.

B5: Example 9 peptide CHANPVWGEC (peptide)
peptide: CHANPVWGEC
notes: also called Ex. No. 9
Take B5: the binding result in experiment [3] was “no binding”.

B6: Example 53 peptide LLDICELKLQECARRCN (AF15846), oxidation state as tested not stated (peptide)
peptide: H-LLDICELKLQECARRCN-OH
modifications: also: oxidation state as tested not given here, active only after oxidation, as a dimer
notes: also called Ex. No. 53; Ex. 78 peptide
For the molecule B6, in experiment [1], the IC50 was at most 0.5 µM.

B7: Example 61 peptide LLDIAELKLQECARRCN (peptide)
peptide: H-LLDIAELKLQECARRCN-OH
modifications: not fully specified (bridges); cysteine pairing not given here
notes: also called Ex. No. 61
In turn, B7 yielded a half-inhibitory concentration (IC50) in experiment [1] of at most 200 µM.

B8: Example 58 peptide LLDICELKLQEAARRCN (peptide)
peptide: H-LLDICELKLQEAARRCN-OH
modifications: not fully specified (bridges); cysteine pairing not given here
notes: also called Ex. No. 58
With B8, in experiment [1], the IC50 is at most 200 µM.

B9: Example 57 peptide LLDICELKLQECARRAN (peptide)
peptide: LLDICELKLQECARRAN
modifications: not fully specified (bridges); cysteine pairing not given here
notes: also called Ex. No. 57
For the molecule B9, the concentration for half-maximal inhibition (IC50) in experiment [1] is at most 200 µM.

B10: Example 59 peptide Biotin-LLDICELKLQECARRAN (peptide)
peptide: Biotin-LLDICELKLQECARRAN
modifications: cysteine pairing not given here
notes: also called Ex. No. 59
B10 gave a half-inhibitory concentration (IC50) in experiment [1] of at most 200 µM.

B11: Example 64 lysine-linked dimer MLAERKAEERRWFNTHGRE / MLAERKAEERRWFNTHGREK (peptide)
peptide 1: MLAERKAEERRWFNTHGRE
peptide 2: MLAERKAEERRWFNTHGREK-NH2
modifications: also: chain 1 C-terminus joined to the C-terminal Lys of chain 2 (branch link drawn)
notes: also called Ex. No. 64
With B11, the IC50 in experiment [2] is about 200 µM.

B12: Example 8 peptide CQRAGYMLAC (peptide)
peptide: CQRAGYMLAC
notes: also called Ex. No. 8
For the molecule B12, the binding result in experiment [3] is reported as “no binding”.

B13: Example 51 peptide DLWYLESKLEECARRCNG (peptide)
peptide: H-DLWYLESKLEECARRCNG-NH2
modifications: not fully specified (bridges); cysteine pairing not given here
notes: also called Ex. No. 51
With B13, the IC50 in experiment [1] was at most 200 µM.

B14: Example 52 dimer of DLWYLESKLEEAARRCNG (peptide)
peptide: H-DLWYLESKLEEAARRCNG-NH2
modifications: also: homodimer via interchain disulfide between the Cys residues
notes: also called Ex. No. 52
In experiment [1], B14 came in with an IC50 of at most 200 µM.

B15: Example 50 dimer of DLWYLESKLEECARRANG (peptide)
peptide: H-DLWYLESKLEECARRANG-NH2
modifications: also: disulfide at 12, other end not in the chain
notes: T0034 draws this dimer as [H]-...-[NH2]; also called Ex. No. 50
B15 had an IC50 in experiment [1] of at most 200 µM.

B16: Example 70 peptide YLELCQLRLEECARQFN (peptide)
peptide: YLELCQLRLEECARQFN
notes: also called Ex. No. 70
For the molecule B16, the concentration for half-maximal inhibition (IC50) in experiment [1] is at most 200 µM.

B17: Example 11 peptide CFWSDWGQTC (peptide)
peptide: CFWSDWGQTC
notes: also called Ex. No. 11
B17: in experiment [3], the binding result is on record as “no binding”.

B18: Example 48 peptide LAHCLLRLEECAAG (peptide)
peptide: LAHCLLRLEECAAG
notes: also called Ex. No. 48
Take B18: the IC50 in experiment [2] is about 200 µM.

B19: Example 62 peptide Biotin-KLLDIAELKLQECARRCN (peptide)
peptide: Biotin-KLLDIAELKLQECARRCN
modifications: cysteine pairing not given here
notes: also called Ex. No. 62
B19 had a concentration for half-maximal inhibition (IC50) in experiment [1] of at most 200 µM.

B20: Example 10 peptide CTWTDLESVY (peptide)
peptide: CTWTDLESVY
notes: also called Ex. No. 10
As to B20, in experiment [3], the binding result is reported as “no binding”.

B21: Example 45 peptide NH2-EQSNSGWVWVGGGGC-CONH2 (monomer) (peptide)
peptide: H-EQSNSGWVWVGGGGC-NH2
notes: also called Ex. No. 45
As for B21, in experiment [1], the IC50 is at most 200 µM.

B22: Example 63 peptide Biotin-KGGGMLAERKAEERRWFNTHGRE (peptide)
peptide: Biotin-KGGGMLAERKAEERRWFNTHGRE
notes: also called Ex. No. 63
B22 gave an IC50 in experiment [1] of at most 200 µM.

B23: Example 47 peptide CESRLVECSRM (peptide)
peptide: CESRLVECSRM
notes: also called Ex. No. 47
As to B23, the IC50 in experiment [2] is about 200 µM.

B24: Example 71 peptide CGCHVSPVQIKALC (peptide)
peptide: CGCHVSPVQIKALC
notes: also called Ex. No. 71
Take B24: the IC50 in experiment [1] was at most 200 µM.

B25: Example 60 peptide Biotin-KLLDICELKLQEAARRCN (peptide)
peptide: Biotin-KLLDICELKLQEAARRCN
modifications: cysteine pairing not given here
notes: also called Ex. No. 60
In experiment [1], B25 registered an IC50 of at most 200 µM.

B26: Example 55 peptide GRTGGGLLDICELKLQECARRCN (peptide)
peptide: GRTGGGLLDICELKLQECARRCN
notes: also called Ex. No. 55
The molecule B26 yielded a 50% inhibitory concentration (IC50) in experiment [1] of at most 0.5 µM.

B27: Example 46 dimer of NH2-EQSNSGWVWVGGGGC-CONH2 (peptide)
peptide: H-EQSNSGWVWVGGGGC-NH2
modifications: also: homodimer linked through the C-terminal Cys residues
notes: also called Ex. No. 46
In experiment [1], B27 yielded an IC50 of at most 200 µM.

B28: Example 37 dimer of NH2-STAERLWFCG-CONH2 (peptide)
peptide: H-STAERLWFCG-NH2
modifications: also: homodimer via interchain disulfide between the Cys residues
notes: also called Ex. No. 37; Ex. 76
For the molecule B28, the IC50 in experiment [1] is at most 200 µM.

B29: Example 54 peptide GGGLLDICELKLQECARRCN (peptide)
peptide: GGGLLDICELKLQECARRCN
notes: also called Ex. No. 54
B29 came in with a concentration for half-maximal inhibition (IC50) in experiment [1] of at most 0.5 µM.

B30: Example 35 peptide NH2-EQSNSGWVWV-CONH2 (peptide)
peptide: H-EQSNSGWVWV-NH2
notes: also called Ex. No. 35; Ex. 74
B30: the concentration for half-maximal inhibition (IC50) in experiment [1] was at most 200 µM.

A word on the IC50: it is the concentration that inhibits the measured activity by half. A low value points to greater potency in that assay.
